In data set [1] the target is T1, Hfq wild type (recombinant, full-length, non-tagged) (Escherichia coli, UniProt P0A6X3 1-102). Briefly: 2D-PAGE/immunoblot of reconstituted complex. In general terms: A western blot detects proteins with antibodies after separation by electrophoresis.
Data set [2] has as its target T1, Hfq wild type (recombinant, …). Briefly: 2D-PAGE/immunoblot of reconstituted complex. The source holds these as a separate data set.

Read-outs that look alike come from different tables or passages of the source.

T1 sequence (P0A6X3 whole entry): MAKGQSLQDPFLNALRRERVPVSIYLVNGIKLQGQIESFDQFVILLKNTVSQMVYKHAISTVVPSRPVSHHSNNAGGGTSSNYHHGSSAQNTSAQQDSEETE

Consider AAAAAAAAAAAAAAAAAAAA (ssRNA) [(rA)20], for which, in data set [1], the binding result is “binds”.

Consider UUUUUUUUUUUUUUUUUUUU (ssRNA) [(U)20], for which the binding result in data set [1] was “binds”.

Consider AAAAA (ssRNA) [(rA)5], for which the binding result in data set [2] is recorded as “binds”.

These data come from publication PMC9150817.
